Target: T1, maltose binding protein (UniProt P0AEX9 27-396 = MBP)
T1 construct: also called MBP; carrier protein
Experiment: ELISA on coated MBP

B1: P4-36 (antibody, V domains shown)
VH: EVQLVESGGGLVQPGRSLRLSCTDSGFTFSEYALSWVRQAPGKGLEWVGFIRSKAYGGTTEYAASVKGRFTISRDDSKSVAYLQMNSLKTEDTAVYFCTGPRPYYDSSGYYPYYFDYWGQGTLVTVSS
VL: QSALTQPRSVSGSPGQSVTISCTGSRSDVGGYDYVSWYQQHPGRVPKLMIYDVTKRPSGVPDRFSGSRSGNTASLTISGLQADDEADYYCSSFAGSSTYVVFGGGTTLTVL
notes: also called mAb P4-36; clone 3 antibody P4-36
binding result: no binding

Reference: US20220281960A1 (RAMOT AT TEL AVIV UNIVERSITY, published 2022)
